# From patent publication US8063012B2, “Neuroprotective peptide inhibitors of AP-1 signaling and uses therefor” (Phylogica Limited, priority 2006, dated 2011)
# Assays:
# [1] = molecular target: T1, interaction between JUN1 and JunZ (c-Jun dimerization) (Homo sapiens, UniProt P05412); assay: Reverse-2-hybrid screening for inhibition of c-Jun dimerization in yeast; assay type: cell-based; settings: for yeast survival on media for counter-selection against AP-1 complex formation viz. c-Jun dimerization: initial reverse-two-hybrid screen, clones expressed from pYTB3; for recapitulation of the disruption phenotype: plasmid clones rescued and re-transformed, two assays
# T1 construct: Partial fragments of c-Jun i.e., JunZ (774-927 bp) and Jun1 (558-1002 bp); expressed in transfected cells; host or cells: Saccharomyces cerevisiae strain PRT480, mated with library strain PRT51
# T1 sequence (P05412 259-309 limits assumed): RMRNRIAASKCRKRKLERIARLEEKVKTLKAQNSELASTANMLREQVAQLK
# T1 sequence (P05412 187-331 limits assumed): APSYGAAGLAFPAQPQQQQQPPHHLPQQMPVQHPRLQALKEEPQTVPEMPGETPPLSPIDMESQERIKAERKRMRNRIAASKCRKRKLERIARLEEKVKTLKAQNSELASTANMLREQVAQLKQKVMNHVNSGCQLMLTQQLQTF
# Excerpt: The yeast two hybrid system described by Vidal.M., In: The Yeast Two Hybrid System (eds. P. Bartel and S. Fields), Oxford University Press, New York (1997), was modified to add another counter selectable marker (CYH2) and to allow flexible titration of stringency by adjustment of sugar concentrations in the screening media.
# Partial fragments of c-Jun i.e., JunZ (774-927 bp) and Jun1 (558-1002 bp), were cloned into yeast two-hybrid vectors pDD (a kanamycin-resistant variant of pGilda bait vector) and pJFK (pYesTrp prey vector (Invitrogen) modified by replacing the TRP1 yeast selection gene with HIS5), respectively, before co-transforming into Saccharomyces cerevisiae strain PRT480 (MATα, his3, trp1, ura3, 4 LexA-LEU2, lys2::3 cIop-LYS2, CAN^R, CYH2^R, ade2::2 LexA-CYH2-ZEO, his5::2 LexA-URA3-G418) using a standard lithium-acetate based chemical transformation protocol.
# The Phylomer™ peptide library was transformed into S. cerevisiae strain PRT51 (MATα, his3, trp1, ura3, 6 LexA-LEU2, lys2::3 cIop-LYS2, CYH2^R, ade2::G418-pZero-ade2, met15::Zeo-pBLUE-met15, his5::hygro), using a high-efficiency lithium acetate-based chemical transformation protocol, slightly modified to maximize the number of transformants.
# Bait/prey plasmid containing PRT480 haploids (10^8 cells) were mated with the Phylomer™ library (10^7 c.f.u.) according to a liquid mating protocol for pretransformed libraries (Clontech, USA), and plated to HW^− minimal media (minimal media lacking histidine and tryptophan) to select for diploids. These plates were scraped after 2 days incubation at 30° C., and the cells were washed, resuspended 1:1 (v/v) in yeast freezing solution (65% v/v glycerol, 0.1M MgSO4, 25 mM Tris-Cl pH 8.0), and frozen at −80° C. in 1 ml aliquots.
# To select peptides that block formation of an AP-1 complex requiring the interaction between JUN1 and JunZ, about 1.5×10^7 c.f.u Jun/Phylomer™ diploids were thawed and outgrown overnight in HW^− to achieve log-phase growth. The following day, 4×10^7 cells were plated onto counter-selective media: HWU^− (lacking histidine, tryptophan and uracil), containing supplements of 0.02% galactose (gal), 2% raffinose (raff), 0.2 μg/ml uracil, 0.06% (w/v) 5-Fluoroorotic acid (FOA), 5 μg/ml cycloheximide. These plates were incubated for 7 days, then colonies were picked to HWU^− 0.02% gal, 2% raff, and then to HWL^− (lacking histidine, tryptophan and leucine) 0.02% gal, 2% raff to confirm blocking phenotype.
# These included transformants comprising the clones designated PYC19 [DNA sequence set forth in SEQ ID NO: 26; encoded amino acid sequence set forth in SEQ ID NO: 27 (with FLAG epitope) and 28 (without FLAG epitope)]; PYC35 [DNA sequence set forth in SEQ ID NO: 34; encoded amino acid sequence set forth in SEQ ID NO: 35 (with FLAG epitope) and 36 (without FLAG epitope)]; PYC36 [DNA sequence set forth in SEQ ID NO: 43; encoded amino acid sequence set forth in SEQ ID NO: 44 (with FLAG epitope) and 45 (without FLAG epitope)]; PYC38/39 [DNA sequence set forth in SEQ ID NO: 52; encoded amino acid sequence set forth in SEQ ID NO: 53 (with FLAG epitope) and 54 (without FLAG epitope)]; and PYC41 [DNA sequence set forth in SEQ ID NO: 60; encoded amino acid sequence set forth in SEQ ID NO: 61 (with FLAG epitope) and 62 (without FLAG epitope)].
# Subsequently, the individual plasmid clones were rescued from the yeast and re-transformed to confirm the disruption phenotype; 63% of the primary “hits”, including PYC 19, PYC35, […], PYC38/39 and PYC41, were positive in two assays for recapitulation of the phenotype.
# [2] = test system: AP-1 luciferase reporter in K562/AP1-Luc cells; assay: Luciferase reporter gene assay of AP-1 dependent transcriptional activity; assay type: cell-based; settings: pcDNA3-peptide transfection, 48 hours, normalised to renilla, vs pcDNA3 vector
# Description: Phylomer™ peptides that inhibit an AP-1 complex formation as described in Example 1 were tested for their ability to decrease AP-1 controlled reporter expression (since Jun dimers are AP-1 moieties). A transient transfection assay in which the expression of each clone was plasmid driven was employed, thereby avoiding the synthesis of large numbers of peptides.
# The K562 cell line was stably-transfected with the AP-1 luciferase reporter (AP1-Luc) of the Mercury Pathway Profiling kit (Clontech, U.S.A.), and the clonal cell line K562/AP1-Luc was established. In 6-well tissue culture plate format, K562/AP1-Luc cells were transfected with either pcDNA3 control, pcDNA3-JunDN (a dominant negative mutant of c-Jun), or pcDNA3-peptide, using Lipofectamine2000 (Life Technologies) according to manufacturer's instructions. Transfection reactions were incubated for 48 hours, cells collected and protein lysates extracted for luciferase assay according to Mercury Pathway Profiling kit and associated protocols.
# Luciferase assays were performed in independent triplicates, and results for each peptide subjected to statistical analysis (SPSS software package) to determine if they were different to JunDN (positive control for AP-1 inhibition) or pcDNA-3 (negative control for AP-1 inhibition).
# All AP-1 luciferase values were normalised to the renilla expression from a cotransfection control. Under these experimental conditions, approximately 30% of Phylomer™ peptides decreased AP-1 reporter activity by at least 50% when compared to the vector-only control (i.e., pcDNA3 vector). More particularly, the peptides designated PYC35, PYC36, PYC38/39 and PYC41 reduced AP-1 reporter activity to approximately 35%, 44%, 47% and 48%, respectively of the level observed for the control sample.
# [3] = test system: neurons around the lesion in the somatosensory cortex; assay: Acute cortical injury (focal traumatic brain injury), immunoreactivity in perilesion area; assay type: in vivo; settings: acute cortical injury of rat brain tissue in situ
# Description: The ability of AP-1 signaling-inhibitory peptides to inhibit neuronal apoptosis was assessed by loss of MAP2 immunoreactivity in a focal model of traumatic brain injury (Chung et al., J. Neuroscience 23, 3336-3342, 2003; King et al., Neuropathol Appl Neurobiol. 27, 115-126, 2001).
# Rats were subjected to acute cortical injury as previously described by Chung et al., J. Neuroscience 23, 3336-3342 (2003) and King et al., Neuropathol Appl Neurobiol. 27, 115-126 (2001). Briefly, male 240 g Hooded-Wistar rats were deeply anaesthetized using Isofluorane (2-3%) and were given an analgesic (Meloxycam, […]), by subcutaneous injection. Animals were immobilized in a Stoelting stereotactic frame, and a 21 gauge blunt Hamilton syringe was inserted into the Par1 region of the somatosensory cortex to a depth of 2 mm and was left in place for 10 minutes. Then, 0.5 μl of 5 μM peptide was administered through the syringe at a rate of 0.05 μl/min. Peptide (10 μl) was applied to 1 mm^2 of Gelfoam, which was implanted before suturing. At 1 day post-injury (PI), rats were deeply anaesthetized with sodium pentobarbital (60 mg/kg), then perfused transcardially with a 4% paraformalydehyde and 4% sucrose fixative solution in 0.01M PBS. Brains were removed and cryoprotected in 18% and 30% sucrose solutions, respectively and 40 μm coronal sections were collected serially through the injury site for immunohistochemical labelling. All animal procedures were approved by the University of Tasmania Animal Ethics Committee (Permit A008878).
# Sections were labelled with Nissl Red, Nuclear Yellow and anti-MAP2 to allow a quantitative assessment of neuronal loss around the lesion. Sections from the lesion centre and 200 μm anterior and posterior to the centre of the injury, at layer III of the neocortex were included in the analysis and the area of MAP2 loss was scored by blinded observers. Three sections from each of three animals were examined for each treatment and significance assessed by ANOVA and post-hoc comparison (Tukey test).
# All data are presented as mean±standard error. […]
Substance,yeast survival on media for counter-selection against AP-1 complex formation viz. c-Jun dimerization [1],recapitulation of the disruption phenotype [1],"AP-1 reporter activity, of the level observed for the control sample [2]",astrogliosis as determined by glial fibrillary acidic protein immunoreactivity [3],loss of neurons as determined by MAP2 immunoreactivity [3],microglial activation as determined by ferritin immunoreactivity [3]
PYC41: Phylomer clone; encoded amino acid sequence SEQ ID NO: 61 (with FLAG epitope) and 62 (without FLAG epitope) (VSINQEHHRLLPL; PYC41L peptide),allowed yeast survival,positive,~48%,–,–,–
PYC38/39: Phylomer clone; encoded amino acid sequence SEQ ID NO: 53 (with FLAG epitope) and 54 (without FLAG epitope) (GLQGRRQPGQQPQGRWSGRALPAHR; PYC38/39L peptide),allowed yeast survival,positive,~47%,–,–,–
PYC19: Phylomer clone; encoded amino acid sequence SEQ ID NO: 27 (with FLAG epitope) and 28 (without FLAG epitope) (LINQSYAYPYIY; PYC19L peptide),allowed yeast survival,positive,–,–,–,–
PYC36: Phylomer clone; encoded amino acid sequence SEQ ID NO: 44 (with FLAG epitope) and 45 (without FLAG epitope) (GLQGRRRQGYQSIKP; PYC36L peptide),allowed yeast survival,positive,~44%,–,–,–
PYC35: Phylomer clone; encoded amino acid sequence SEQ ID NO: 35 (with FLAG epitope) and 36 (without FLAG epitope) (AYQSIRSGGIESSSKRER; PYC35L peptide),allowed yeast survival,positive,approximately 35%,reduced astrogliosis,reduced loss of neurons,reduced microglial activation
